Test results reported in US20090175866A1, “TREATMENT OF B-CELL MALIGNANCIES” (priority 2004, published 2009).

Experiments:
FGFR1 = FGFR1 (Homo sapiens, UniProt P11362); assay: FGF-stimulated proliferation of FDCP-FGFR1 cells (XTT); assay type: cell-based; settings: up to 10 fold higher concentrations than the FDCP-FGFR3 IC50
Text: FIG. 1D is a graph showing proliferation of FGFR expressing FDCP cells in the presence of increasing concentrations of PRO-001 as determined by XTT analysis. Data are the average of duplicate cultures. The X axis represents concentration of PRO-001 Fab. The Y axis represents % inhibition.
Non-transformed rat chondrocyte cell line expressing PGFR3 in an inducible manner (RCJ-FGFR3) has been described previously (Rauchenberger R. et al. J. Biol. Chem. 2003; 278:38194-205). […]
(§1) Cell viability was assessed by 3-(4,5-dimethylthiazol)-2,5-diphenyl tetrazolium (MTT) or (2,3-bis(2-methoxy-4-nitro-5-sulphophenyl)-5-[(phenylamino) carbonyl]-2H-tetrazolium hydroxide (XTT) dye absorbance where indicated. Cells were seeded in 96-well plates at a density of 20,000 (FDCP-1 cells), 5,000 (B9 cells) or 25,000 cells (MM cell lines) per well in culture medium. Cells were incubated in the absence or presence of one of the following cytokines: 10 ng/ml FGF9 and 5 μg/ml heparin, 1% murine IL-6, 50 ng/ml IGF-1 or 50 ng/ml human IL-6 where indicated and increasing concentrations of PRO-001, control antibody (purified human Fab) or 100 nM PD173074. […]

H929 cells = assay: Viability of H929 myeloma cells (MTT); assay type: cell-based, human; settings: 5 μg/ml
Text: FIG. 2 is a graph showing the viability of human myeloma cell lines in the presence of PRO-001. Viability is reported as the ratio between the optical density (OD) in the presence of FGF±inhibitor and the OD in the absence of FGF.
Non-transformed rat chondrocyte cell line expressing PGFR3 in an inducible manner (RCJ-FGFR3) has been described previously (Rauchenberger R. et al. J. Biol. Chem. 2003; 278:38194-205). Cells were maintained in α-Minimum Essential Media supplemented with 15% fetal calf serum (FCS), 2 mM L-Glutamine, 100 U/ml penicillin, 100 μg/ml streptomycin, 600 μg/ml G418 (Gibco BRL, Ontario, Canada), 2 μg/ml Tetracyclin (Sigma, Ontario, Canada), and 50 μg/ml HygromycinB (Gibco BRL). […]
as §1

KMS18 (FGFR3-G384D) = assay: Viability of KMS18 myeloma cells; assay type: cell-based, human; settings: cells grow independent of FGF
Description: Non-transformed rat chondrocyte cell line expressing PGFR3 in an inducible manner (RCJ-FGFR3) has been described previously (Rauchenberger R. et al. J. Biol. Chem. 2003; 278:38194-205). Cells were maintained in α-Minimum Essential Media supplemented with 15% fetal calf serum (FCS), 2 mM L-Glutamine, 100 U/ml penicillin, 100 μg/ml streptomycin, 600 μg/ml G418 (Gibco BRL, Ontario, Canada), 2 μg/ml Tetracyclin (Sigma, Ontario, Canada), and 50 μg/ml HygromycinB (Gibco BRL). FGFR3 expression was induced by removal of tetracyclin and serum starvation. […]
as §1

FGFR1, sequence (P11362 22-822, species assumed): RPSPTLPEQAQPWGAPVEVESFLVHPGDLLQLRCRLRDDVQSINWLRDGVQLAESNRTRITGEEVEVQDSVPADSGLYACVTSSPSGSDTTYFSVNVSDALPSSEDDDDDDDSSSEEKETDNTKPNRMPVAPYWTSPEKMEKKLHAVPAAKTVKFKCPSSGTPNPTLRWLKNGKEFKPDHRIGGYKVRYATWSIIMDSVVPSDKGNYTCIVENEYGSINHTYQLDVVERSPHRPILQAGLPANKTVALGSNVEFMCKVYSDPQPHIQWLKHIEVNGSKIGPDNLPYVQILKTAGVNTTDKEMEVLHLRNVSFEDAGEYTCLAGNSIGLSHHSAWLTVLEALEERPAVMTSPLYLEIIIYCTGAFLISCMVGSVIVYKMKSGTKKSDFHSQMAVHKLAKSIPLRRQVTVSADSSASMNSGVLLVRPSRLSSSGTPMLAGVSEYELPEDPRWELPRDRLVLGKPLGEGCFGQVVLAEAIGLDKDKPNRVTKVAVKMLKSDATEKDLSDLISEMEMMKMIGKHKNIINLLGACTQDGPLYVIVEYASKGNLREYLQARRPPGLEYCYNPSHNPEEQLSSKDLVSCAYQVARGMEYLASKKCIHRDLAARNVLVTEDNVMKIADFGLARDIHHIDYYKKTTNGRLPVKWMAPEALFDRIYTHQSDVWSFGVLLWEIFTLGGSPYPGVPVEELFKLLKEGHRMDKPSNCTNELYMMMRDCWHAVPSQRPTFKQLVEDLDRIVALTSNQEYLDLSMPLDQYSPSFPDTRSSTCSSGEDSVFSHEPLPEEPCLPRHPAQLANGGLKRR

B1: PRO-001: human anti-FGFR3 Fab from HuCAL library; VH-CDR3 SEQ ID NO:1, VL-CDR3 SEQ ID NO:10; VH SEQ ID NO:19, VL SEQ ID NO:28 (antibody, V domains shown)
VH: QVQLQQSGPGLVKPSQTLSLTCAISGDSVSSNSAAWNWIRQSPGRGLEWLGRTYYRSKWYNDYAVSVKSRITINPDTSKNQFSLQLNSVTPEDTAVYYCARSYYPDFDYWGQGTLVTVSS
VL: DIELTQPPSVSVAPGQTARISCSGDALGDKYASWYQQKPGQAPVLVIYDDSDRPSGIPERFSGSNSGNTATLTISGTQAEDEADYYCQSYDGPDLWVFGGGTKLTVLGQ
- Proliferation of FDCP-1 cells expressing FGFR1 (FGFR1): unaffected
- Cell growth of H929 cells in the presence of FGF (H929 cells): resistant
- Viability of KMS18 (FGFR3-G384D) (KMS18 (FGFR3-G384D)): failed to inhibit the viability
